The values that follow come from patent US20210063414A1, “METHODS FOR PREVENTING AND/OR TREATING BONE LOSS CONDITIONS BY MODULATING IRISIN” (Dana-Farber Cancer Institute, Inc., priority 2018, published 2021).

The test deals with T1, MLO-Y4 cell surface proteins (Mus musculus, UniProt B1AVY7).
T1 construct: endogenous in cells; host or cells: MLO-Y4
T1 sequence (B1AVY7 1-1312): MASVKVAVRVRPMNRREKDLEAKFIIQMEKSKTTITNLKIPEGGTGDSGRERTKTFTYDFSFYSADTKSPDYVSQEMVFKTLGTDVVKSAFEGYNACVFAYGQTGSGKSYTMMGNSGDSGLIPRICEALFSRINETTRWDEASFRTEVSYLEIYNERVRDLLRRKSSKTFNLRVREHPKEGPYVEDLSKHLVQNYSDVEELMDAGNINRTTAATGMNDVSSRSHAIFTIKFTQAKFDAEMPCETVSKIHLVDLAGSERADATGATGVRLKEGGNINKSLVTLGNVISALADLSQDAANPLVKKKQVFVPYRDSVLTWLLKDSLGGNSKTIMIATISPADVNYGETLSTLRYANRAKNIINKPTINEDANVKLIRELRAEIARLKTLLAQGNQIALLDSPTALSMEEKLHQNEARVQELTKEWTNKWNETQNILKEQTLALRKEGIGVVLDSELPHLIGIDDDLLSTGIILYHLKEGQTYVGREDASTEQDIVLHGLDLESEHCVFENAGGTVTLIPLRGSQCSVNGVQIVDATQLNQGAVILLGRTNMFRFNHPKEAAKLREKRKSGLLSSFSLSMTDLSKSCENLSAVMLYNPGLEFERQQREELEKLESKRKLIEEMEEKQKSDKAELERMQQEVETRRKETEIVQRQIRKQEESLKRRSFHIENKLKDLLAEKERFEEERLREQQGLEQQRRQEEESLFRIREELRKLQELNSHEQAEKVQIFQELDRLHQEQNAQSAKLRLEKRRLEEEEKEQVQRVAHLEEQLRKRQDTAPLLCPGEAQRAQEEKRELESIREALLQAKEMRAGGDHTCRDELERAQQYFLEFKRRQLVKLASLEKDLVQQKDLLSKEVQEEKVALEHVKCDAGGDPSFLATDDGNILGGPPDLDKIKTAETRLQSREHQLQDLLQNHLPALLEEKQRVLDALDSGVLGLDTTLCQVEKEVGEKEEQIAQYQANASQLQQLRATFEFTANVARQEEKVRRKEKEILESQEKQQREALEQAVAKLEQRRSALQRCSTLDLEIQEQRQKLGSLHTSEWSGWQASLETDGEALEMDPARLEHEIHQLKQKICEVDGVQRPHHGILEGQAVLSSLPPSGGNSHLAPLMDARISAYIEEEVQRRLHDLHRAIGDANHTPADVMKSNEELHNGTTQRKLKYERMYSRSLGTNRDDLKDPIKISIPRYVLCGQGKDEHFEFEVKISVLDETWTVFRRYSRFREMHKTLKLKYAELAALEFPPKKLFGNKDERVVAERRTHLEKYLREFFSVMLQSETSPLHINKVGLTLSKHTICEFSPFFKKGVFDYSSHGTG
Kind of test: Crosslinking/co-immunoprecipitation/mass spectrometry (TMT quantitative proteomics) to identify irisin receptors. The format is binding. Particulars: co-precipitated protein Kif16b (KI16B_MOUSE). The procedure, abridged:
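Mouse MLO-Y4 cells were switched to serum-free FreeStyle medium for 4 h, chilled, then exposed to 10 nM His-tagged irisin (or adipsin as control) for 20 min. Cells were crosslinked with 1.5 mM DTSSP (30 min, ice), and bound proteins were pulled down on Ni-NTA and eluted with 250 mM imidazole. Eluates were separated by SDS-PAGE, trypsin-digested in gel, TMT 6-plex labelled and quantified by MS3-based LC-MS/MS on an Orbitrap Fusion Lumos.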

B1: irisin: secreted cleaved form of FNDC5; recombinant human/mouse irisin with C-terminal his tag produced in HEK293 cells (protein)
chain: DSPSAPVNVTVRHLKANSAVVSWDVLEDEVVIGFAISQQKKDVRMLRFIQEVNTTTRSCALWDLEEDTEYIVHVQAISIQGQSPASEPVLFKTPREAEKMASKNKDEVTMKE
modifications: left off: small tags and cut ends
notes: secreted cleaved form of FNDC5; recombinant human/mouse irisin with C-terminal his tag produced in HEK293 cells
On to B1, for which the TMT signal-to-noise ratio is on record as 528.649 and the “irisin/adipsin TMT signal-to-noise ratio” value is listed as 0.473.
